Measured values as given in patent publication US20250296960A1, “PEPTIDE COMPOSITIONS AND METHODS OF USE THEREOF” (priority 2022, published 2025).
Read-outs that look alike come from different tables or passages of the source. Numbered stars: 1 amine (or outer) side, 2 acyl side, 3 side chain; on linkers, the order of the positions; unused ones are H or OH. Square brackets hold non-standard residues; d marks the D form. Primed or numbered codes have the meaning given here. Side chains are listed from the residue outwards. Ends that are not written are not given here. Peptide text beside a SMILES is read from it. * marks the point of attachment. C18 = C18 fatty acid (C16-C22 fatty acids conjugated via γGlu/8-amino-3,6-dioxaoctanoic acid spacers); X1 = O=C(O)CCCCCCCCCCCCCCCCC(=O)N[C@@H](CCC(=O)NCCOCCOCC(=O)NCCOCCOCC(=O)NCCN1C(=O)CC(*)C1=O)C(=O)O; methoxinine = methoxinine (m*), COCC[C@H](N[*:1])C(=O)[*:2]; C18″ = C18 fatty acid moiety (of 2OEG-γGlu-C18, K*); Biotin = O=C1N[C@H]2[C@H](CS[C@H]2CCCCC(=O)*)N1; γGlu = O=C(O)[C@H](CCC(=O)[*:2])N[*:1]; AEEA = NCCOCCOCC(=O)O; Aib = CC(C)(N)C(=O)O

Columns and labels:
human GIPR = biological target: T1, human GIPR (Homo sapiens, UniProt P48546); assay: cAMP assay (HitHunter cAMP) in GIPR-expressing CHO-K1 cells (GIPR+ cells); format: cell-based
T1 construct: host or cells: CHO-K1
T1 sequence (P48546 22-466): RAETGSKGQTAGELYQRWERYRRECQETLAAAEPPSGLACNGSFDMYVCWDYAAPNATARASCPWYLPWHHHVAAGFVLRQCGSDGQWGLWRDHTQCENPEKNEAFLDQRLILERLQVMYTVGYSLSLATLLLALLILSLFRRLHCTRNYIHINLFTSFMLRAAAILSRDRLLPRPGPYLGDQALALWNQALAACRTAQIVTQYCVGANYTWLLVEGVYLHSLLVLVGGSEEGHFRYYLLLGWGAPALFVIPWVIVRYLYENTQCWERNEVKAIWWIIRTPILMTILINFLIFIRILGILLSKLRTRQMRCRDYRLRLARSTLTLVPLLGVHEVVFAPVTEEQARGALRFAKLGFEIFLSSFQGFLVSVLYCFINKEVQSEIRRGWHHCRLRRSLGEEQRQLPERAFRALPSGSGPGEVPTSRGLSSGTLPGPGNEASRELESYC
Outline: (§1)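 CHO-K1 cells expressing each receptor were plated overnight, then treated with peptide in cAMP assay buffer for 30 min at 37 °C. cAMP was detected by antibody plus detection solution (1 h) and Solution A (3 h), both at room temperature in the dark. Luminescence was the read-out.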

human GLP-1R = biological target: T2, human GLP-1R (Homo sapiens, UniProt P43220); assay: cAMP assay (HitHunter cAMP) in GLP-1R-expressing CHO-K1 cells (GLP-1R+ cells); format: cell-based
T2 construct: host or cells: CHO-K1
T2 sequence (P43220 24-463): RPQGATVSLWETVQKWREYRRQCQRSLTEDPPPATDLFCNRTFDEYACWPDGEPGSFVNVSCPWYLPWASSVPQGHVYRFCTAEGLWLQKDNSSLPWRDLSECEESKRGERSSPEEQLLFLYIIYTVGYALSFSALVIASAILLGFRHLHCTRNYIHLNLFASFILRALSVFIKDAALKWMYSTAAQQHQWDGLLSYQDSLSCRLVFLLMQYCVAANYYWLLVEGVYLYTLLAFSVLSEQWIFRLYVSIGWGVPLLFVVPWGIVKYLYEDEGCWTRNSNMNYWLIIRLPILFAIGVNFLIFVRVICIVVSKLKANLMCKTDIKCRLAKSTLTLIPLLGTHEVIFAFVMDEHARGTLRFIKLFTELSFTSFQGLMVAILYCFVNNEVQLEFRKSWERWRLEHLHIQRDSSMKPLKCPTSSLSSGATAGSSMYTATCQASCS
Outline: as §1

[1] = In vivo efficacy in mAMLN (NASH) mice, 2 weeks
human GCGR = biological target: T3, human GCGR (Homo sapiens, UniProt P47871); assay: cAMP assay (HitHunter cAMP) in GCGR-expressing CHO-K1 cells (GCGR+ cells); format: cell-based
T3 construct: host or cells: CHO-K1
T3 sequence (P47871 26-477): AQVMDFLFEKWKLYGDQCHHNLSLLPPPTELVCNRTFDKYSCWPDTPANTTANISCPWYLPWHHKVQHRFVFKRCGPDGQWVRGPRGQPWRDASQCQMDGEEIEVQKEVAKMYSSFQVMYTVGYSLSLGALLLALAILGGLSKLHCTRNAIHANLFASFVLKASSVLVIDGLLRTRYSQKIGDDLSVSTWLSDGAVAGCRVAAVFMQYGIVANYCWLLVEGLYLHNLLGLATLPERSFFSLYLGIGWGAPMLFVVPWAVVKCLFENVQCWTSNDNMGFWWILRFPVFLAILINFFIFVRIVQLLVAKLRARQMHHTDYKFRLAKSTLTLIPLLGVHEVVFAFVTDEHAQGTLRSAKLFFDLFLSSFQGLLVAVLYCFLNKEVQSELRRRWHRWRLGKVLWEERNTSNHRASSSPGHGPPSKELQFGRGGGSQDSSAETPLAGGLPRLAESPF
Outline: as §1

[2] = Body weight loss in normal C57BL/6 mice, subcutaneous dosing; format: in vivo; conditions: for Weight loss (%): normal mice, after 48 or 72 hours
[3] = biological target: T4, human glucagon receptor (GCGR), expressed on CHO-K1 cells (human, UniProt P47871 26-477); assay: cell-based or functional assay
T4 sequence (P47871 26-477): as above

[4] = biological target: T5, human glucose-dependent insulinotropic polypeptide receptor (GIPR), expressed on CHO-K1 cells (human, UniProt P48546 22-466); assay: cell-based or functional assay
T5 sequence (looked up): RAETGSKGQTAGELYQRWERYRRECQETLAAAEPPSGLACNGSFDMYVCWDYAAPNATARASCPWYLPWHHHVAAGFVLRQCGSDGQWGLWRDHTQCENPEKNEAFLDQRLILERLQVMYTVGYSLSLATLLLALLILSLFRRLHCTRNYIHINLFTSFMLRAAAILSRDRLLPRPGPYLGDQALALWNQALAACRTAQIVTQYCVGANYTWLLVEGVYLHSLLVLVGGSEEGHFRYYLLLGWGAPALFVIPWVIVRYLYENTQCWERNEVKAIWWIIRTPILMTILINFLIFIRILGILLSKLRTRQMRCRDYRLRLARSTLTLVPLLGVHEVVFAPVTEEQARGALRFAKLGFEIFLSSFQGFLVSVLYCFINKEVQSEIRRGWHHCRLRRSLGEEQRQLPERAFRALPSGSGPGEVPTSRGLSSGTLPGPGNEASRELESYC

[5] = biological target: T6, human GLP-1 receptor (GLP-1R), expressed on CHO-K1 cells (human, UniProt P43220 24-463); assay: cell-based or functional assay
[6] = biological target: T4, human glucagon receptor (GCGR), …; assay: cell-based or functional assay; remark: listed apart in the source
[7] = biological target: T5, human glucose-dependent insulinotropic …; assay: cell-based or functional assay; remark: listed apart in the source
[8] = biological target: T6, human GLP-1 receptor (GLP-1R), …; assay: cell-based or functional assay; remark: listed apart in the source
[9] = biological target: T4, human glucagon receptor (GCGR), …; assay: cell-based or functional assay; remark: listed apart in the source
[10] = biological target: T5, human glucose-dependent insulinotropic …; assay: cell-based or functional assay; remark: listed apart in the source
[11] = biological target: T6, human GLP-1 receptor (GLP-1R), …; assay: cell-based or functional assay; remark: listed apart in the source
[12] = biological target: T4, human glucagon receptor (GCGR), …; assay: cell-based or functional assay; remark: listed apart in the source
[13] = biological target: T5, human glucose-dependent insulinotropic …; assay: cell-based or functional assay; remark: listed apart in the source
[14] = biological target: T6, human GLP-1 receptor (GLP-1R), …; assay: cell-based or functional assay; remark: listed apart in the source
[15] = Table 19, normalised to activity at GLP-1R
[16] = Table 24, ratio of EC50 of native ligand over peptide

CC[C@H](C)[C@H](NC(=O)[C@H](CC(C)C)NC(=O)[C@H](Cc1c[nH]c2ccccc12)NC(=O)[C@H](CCC(N)=O)NC(=O)[C@@H](NC(=O)[C@H](Cc1ccccc1)NC(=O)[C@H](CC(=O)O)NC(=O)[C@H](CCCNC(=N)N)NC(=O)[C@H](C)NC(=O)[C@H](CCSC)NC(=O)[C@H](CCSC)NC(=O)[C@H](Cc1ccc(O)cc1)NC(=O)[C@H](CC(=O)O)NC(=O)[C@H](CC(C)C)NC(=O)[C@H](Cc1ccc(O)cc1)NC(=O)[C@H](CCCCN)NC(=O)[C@H](CO)NC(=O)[C@H](Cc1ccc(O)cc1)NC(=O)[C@H](CC(=O)O)NC(=O)[C@H](CO)NC(=O)[C@@H](NC(=O)[C@H](Cc1ccccc1)NC(=O)[C@@H](NC(=O)CNC(=O)[C@H](CCC(N)=O)NC(=O)C(C)(C)NC(=O)[C@@H](N)Cc1ccc(O)cc1)[C@@H](C)O)[C@@H](C)O)C(C)C)C(=O)N[C@@H](CCC(=O)O)C(=O)NCC(=O)NCC(=O)N1CCC[C@H]1C(=O)N[C@@H](CO)C(=O)N[C@@H](CO)C(=O)NCC(=O)N[C@@H](C)C(=O)N1CCC[C@H]1C(=O)N1CCC[C@H]1C(=O)N1CCC[C@H]1C(=O)N[C@@H](CO)C(=O)N[C@@H](CSC1CC(=O)N(CCNC(=O)COCCOCCNC(=O)COCCOCCNC(=O)CC[C@H](NC(=O)CCCCCCCCCCCCCCCCC(=O)O)C(=O)O)C1=O)C(N)=O (some centres unmarked) [5-1A] (H-Y[Aib]QGTFTSDYSKYLDYMMARDFVQWLIEGGPSSGAPPPSC(X1)-NH2; N-terminus assumed)
Activity relative to STD peptide (%), GIPR (human GIPR; Table 18): 1% | Activity relative to GLP-1 (%), GIPR (human GIPR; [15]): 1% | Relative % to native ligand, GIPR (human GIPR; [16]): 1% | Ratio vs. GLP-1R, GIPR (human GIPR; Table 25): 1 | Relative % to non-lipidated peptide, GIPR (human GIPR; Table 26): 11% | Activity relative to STD peptide (%), GLP-1R (human GLP-1R; Table 18): 187% | Activity relative to GLP-1 (%), GLP-1R (human GLP-1R; [15]): 100% | Relative % to native ligand, GLP-1R (human GLP-1R; [16]): 187% | Ratio vs. GLP-1R, GLP-1R (human GLP-1R; Table 25): 100 | Relative % to non-lipidated peptide, GLP-1R (human GLP-1R; Table 26): 159% | blood glucose, in words ([1]; 20 nmol/kg s.c. Q2D, 2 weeks): reduce blood glucose | body weight, in words ([1]; 20 nmol/kg s.c. Q2D, 2 weeks): reduce body weight | hepatic triglyceride content, in words ([1]; end of treatment): reduce hepatic triglyceride content | liver weight, in words ([1]; end of treatment): reduce liver weight | mRNA levels of TGF-β1 (inflammation marker) and ACTA2 (fibrosis marker), in words ([1]; end of treatment): reduce both TGF-β1 and ACTA2 | Activity relative to STD peptide (%), GCGR (human GCGR; Table 18): 24% | Activity relative to GLP-1 (%), GCGR (human GCGR; [15]): 13% | Relative % to native ligand, GCGR (human GCGR; [16]): 24% | Ratio vs. GLP-1R, GCGR (human GCGR; Table 25): 13 | Relative % to non-lipidated peptide, GCGR (human GCGR; Table 26): 0% | body weight loss effect, in words ([2]; Example 5, 20 nmol/kg s.c. QD, 4 days): Superior body weight loss effects | Weight loss (%) ([2]; 10 nmol/kg QD): 20.0 ± 2.1% | Weight loss (%) ([2]; 20 nmol/kg QD): 18.9 ± 2.0%

H[Aib]QGTFTSDYSK([AEEA-AEEA-γGlu-C18″])YLDYMMARDFVQWLIEGGPSSGAPPPS-NH2 [Peptide No. 5D]
Ratio vs. GLP-1R [3]: 204 | Ratio vs. GLP-1R [4]: 8 | Ratio vs. GLP-1R [5]: 100 | Relative % to native ligand [6]: 72% | Relative % to native ligand [7]: 3% | Relative % to native ligand [8]: 35% | Relative % to non-lipidated peptide [9]: 10% | Relative % to non-lipidated peptide [10]: 93% | Relative % to non-lipidated peptide [11]: 6%

Y[Aib]QGTFTSDYSK([AEEA-AEEA-γGlu-C18])LLDYMMQRDFVQWLLEGGPSSGAPPPSK(Biotin)-NH2 [SEQ ID NO. 90]
Ratio vs. GLP-1R [12]: 39 | Relative % to native ligand [12]: 19% | Ratio vs. GLP-1R [13]: 311 | Relative % to native ligand [13]: 154% | Ratio vs. GLP-1R [14]: 100 | Relative % to native ligand [14]: 50%

Y[Aib]QGTFTSDYSK([AEEA-AEEA-γGlu-C18])LLDY[methoxinine][methoxinine]QRDFVQWLLEGGPSSGAPPPS-NH2 [SEQ ID NO. 96]
Ratio vs. GLP-1R [12]: 10 | Relative % to native ligand [12]: 17% | Ratio vs. GLP-1R [13]: 56 | Relative % to native ligand [13]: 102% | Ratio vs. GLP-1R [14]: 100 | Relative % to native ligand [14]: 181%

Y[Aib]QGTFTSDYSK([AEEA-AEEA-γGlu-C18])LLDYMMQ[Aib]DFVQYLLEGGPSSGAPPPS-NH2 [SEQ ID NO. 85]
Ratio vs. GLP-1R [12]: 305 | Relative % to native ligand [12]: 38% | Ratio vs. GLP-1R [13]: 1150 | Relative % to native ligand [13]: 143% | Ratio vs. GLP-1R [14]: 100 | Relative % to native ligand [14]: 12%

Y[Aib]QGTFTSDYSK([AEEA-AEEA-γGlu-C18])LLDQQAQRDFVQWLLEGGPSSGAPPPS-NH2 [SEQ ID NO. 95]
Ratio vs. GLP-1R [12]: 1 | Relative % to native ligand [12]: 14% | Ratio vs. GLP-1R [13]: 19 | Relative % to native ligand [13]: 316% | Ratio vs. GLP-1R [14]: 100 | Relative % to native ligand [14]: 1630%
